Usually Ki stands for the equilibrium dissociation constant of an inhibitor or competing ligand from its target. Low values mean tighter binding, high ones weaker binding. The term Kd denotes the equilibrium constant for the complex coming apart.

The target of one test is trypsin. Nature of the test: enzyme inhibition.
In test [1] the target is leukotriene A4 hydrolase (LTA4H) (UniProt P09960). The experiment in a line: enzyme inhibition.
The target in a further test is plasmin. Nature of the test: enzyme inhibition.
Test [2] addresses leukotriene A4 hydrolase (LTA4H) (UniProt P09960). Nature of the test: SPR.

Turning to “MTX, immunosuppressant protein from the submandibular salivary glands of the bat Myotis pilosus (natural protein)”, the Ki with trypsin was determined as 67.5 nM; in test [1] it was 1230 nM; in the test with plasmin, 80 nM. In test [2], this substance displayed a Kd of 0.45 nM.

The values are drawn from article PMC8915838.
